These results are taken from patent publication US20220064644A1 (TAIPEI MEDICAL UNIVERSITY, published 2022).

In data set [1] the target is ATXN3-84Q (mutant ATXN3), P54252.
For data set [2], the target named is T1, GST-Q43-HTTEX1, P42858.
T1 chain: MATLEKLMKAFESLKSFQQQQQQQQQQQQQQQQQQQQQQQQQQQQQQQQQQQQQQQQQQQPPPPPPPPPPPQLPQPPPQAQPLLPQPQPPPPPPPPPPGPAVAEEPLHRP

Data set [3] concerns the target ATXN3-28Q (normal ATXN3), P54252.
In data set [4] the target is T2, GST protein (UniProt P08515 1-218 = GST).
T2 construct: Negative control in the pull-down assays
The experiment in a line: GST pull-down with purified recombinant proteins, Western blot. On the procedure: The indicated lysates (1 mg) were incubated with purified recombinant GST or GST-Q₂₅-HTTEX1 protein as indicated for 60 min at 4° C. to allow complex formation. GST served as a negative control. The protein complexes were analyzed by Western blotting. The amount of PIAS1-domain-deletion mutant was normalized to the corresponding bait (GST-Q₂₅-HTTEX1 protein). The data are presented as the mean±SEM (N=4). **p<0.001 and ****p<0.0001 by one-way ANOVA. (FIG. 12 (C)) Purified recombinant 6×His-S/T rich region only of PIAS1 was incubated with purified recombinant GST or GST-Q₂₅-HTTEX1 protein for 60 min at 4° C. GST served as a negative control. The protein complexes were analyzed by Western blotting. The red arrowhead and yellow arrowhead mark the GST-Q₂₅-HTTEX1 and GST proteins, respectively. The data shown here represent three independent experiments.
GST Pull-down Assay. Cell lysates were harvested using a nondenaturing lysis buffer (137 mM NaCl, 1% NP-40, 20 mM Tris pH 8.0, and 1 mM EDTA) containing a protease inhibitor cocktail and 1× phosphatase inhibitor cocktail (Roche) and subjected to rotation at 4° C. for 1 hr. […] The bound proteins were analyzed with SDS-PAGE and Western blotting. […]
(In western blotting, separated proteins are transferred to a membrane and probed.)

Chain of ATXN3-28Q (normal ATXN3), P54252 (P54252 whole entry, looked up, tested part not stated): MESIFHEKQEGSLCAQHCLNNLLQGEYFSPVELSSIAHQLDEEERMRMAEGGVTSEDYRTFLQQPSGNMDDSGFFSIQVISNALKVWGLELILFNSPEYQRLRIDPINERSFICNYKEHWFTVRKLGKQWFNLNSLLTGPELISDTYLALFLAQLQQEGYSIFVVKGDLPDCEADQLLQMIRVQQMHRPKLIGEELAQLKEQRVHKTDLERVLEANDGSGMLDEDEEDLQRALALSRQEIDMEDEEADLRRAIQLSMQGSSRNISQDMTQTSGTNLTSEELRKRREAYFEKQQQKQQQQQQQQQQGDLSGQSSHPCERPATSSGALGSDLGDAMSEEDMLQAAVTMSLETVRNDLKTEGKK
Chain of ATXN3-84Q (mutant ATXN3), P54252 (P54252 whole entry, looked up, change not shown, tested part not stated): as the sequence (P54252 whole entry, looked up, tested part not stated) above
T2 sequence (P08515 whole entry): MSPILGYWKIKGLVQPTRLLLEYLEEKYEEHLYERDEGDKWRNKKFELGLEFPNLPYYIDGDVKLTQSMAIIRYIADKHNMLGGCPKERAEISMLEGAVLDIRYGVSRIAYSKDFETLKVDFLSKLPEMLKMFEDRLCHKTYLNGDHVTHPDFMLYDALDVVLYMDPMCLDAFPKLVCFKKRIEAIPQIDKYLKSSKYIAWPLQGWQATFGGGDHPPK

B1: wild-type PIAS1 (Homo sapiens protein inhibitor of activated STAT 1) (protein)
chain: MADSAELKQMVMSLRVSELQVLLGYAGRNKHGRKHELLTKALHLLKAGCSPAVQMKIKELYRRRFPQKIMTPADLSIPNVHSSPMPATLSPSTIPQLTYDGHPASSPLLPVSLLGPKHELELPHLTSALHPVHPDIKLQKLPFYDLLDELIKPTSLASDNSQRFRETCFAFALTPQQVQQISSSMDISGTKCDFTVQVQLRFCLSETSCPQEDHFPPNLCVKVNTKPCSLPGYLPPTKNGVEPKRPSRPINITSLVRLSTTVPNTIVVSWTAEIGRNYSMAVYLVKQLSSTVLLQRLRAKGIRNPDHSRALIKEKLTADPDSEIATTSLRVSLLCPLGKMRLTIPCRALTCSHLQCFDATLYIQMNEKKPTWVCPVCDKKAPYEHLIIDGLFMEILKYCTDCDEIQFKEDGTWAPMRSKKEVQEVSASYNGVDGCLSSTLEHQVASHHQSSNKNKKVEVIDLTIDSSSDEEEEEPSAKRTCPSLSPTSPLNNKGILSLPHQASPVSRTPSLPAVDTSYINTSLIQDYRHPFHMTPMPYDLQGLDFFPFLSGDNQHYNTSLLAAAAAAVSDDQDLLHSSRFFPYTSSQMFLDQLSAGGSTSLPTTNGSSSGSNSSLVSSNSLRESHSHTVTNRSSTDTASIFGIIPDIISLD
For B1, the “in vitro SUMOylation assay (SUMO3 conjugation of ATXN3)” value was “When PIAS1 and ATP (ATP is necessary for SUMOylation activation) participated the reaction process, formed ATXN3 SUMO conjugation (FIG. 6 (B)), both normal and mutant ATXN3” in data set [1]; “When PIAS1 and ATP (ATP is necessary for SUMOylation activation) participated the reaction process, formed ATXN3 SUMO conjugation (FIG. 6 (B)), both normal and mutant ATXN3” in data set [3]. The “in vitro SUMOylation of GST-Q43-HTTEX1 (Western blot shift)” value in data set [2] is recorded as “The addition of PIAS1^WT enhanced the SUMOylation of GST-Q43-HTTEX1”.

B2: PIAS1 gene variant 3 (PIAS1^S510G) (protein)
chain: MADSAELKQMVMSLRVSELQVLLGYAGRNKHGRKHELLTKALHLLKAGCSPAVQMKIKELYRRRFPQKIMTPADLSIPNVHSSPMPATLSPSTIPQLTYDGHPASSPLLPVSLLGPKHELELPHLTSALHPVHPDIKLQKLPFYDLLDELIKPTSLASDNSQRFRETCFAFALTPQQVQQISSSMDISGTKCDFTVQVQLRFCLSETSCPQEDHFPPNLCVKVNTKPCSLPGYLPPTKNGVEPKRPSRPINITSLVRLSTTVPNTIVVSWTAEIGRNYSMAVYLVKQLSSTVLLQRLRAKGIRNPDHSRALIKEKLTADPDSEIATTSLRVSLLCPLGKMRLTIPCRALTCSHLQCFDATLYIQMNEKKPTWVCPVCDKKAPYEHLIIDGLFMEILKYCTDCDEIQFKEDGTWAPMRSKKEVQEVSASYNGVDGCLSSTLEHQVASHHQSSNKNKKVEVIDLTIDSSSDEEEEEPSAKRTCPSLSPTSPLNNKGILSLPHQASPVSRTPGLPAVDTSYINTSLIQDYRHPFHMTPMPYDLQGLDFFPFLSGDNQHYNTSLLAAAAAAVSDDQDLLHSSRFFPYTSSQMFLDQLSAGGSTSLPTTNGSSSGSNSSLVSSNSLRESHSHTVTNRSSTDTASIFGIIPDIISLD
On to B2, for which the “in vitro SUMOylation of GST-Q43-HTTEX1 (Western blot shift)” value in data set [2] was “Compared with PIAS1^WT, PIAS1^S510G induced a much lower level of SUMOylation of GST-Q43HTTEX1”.

B3: 6xHis-S/T rich region only of PIAS1 (other, human, UniProt O75925 480-651, looked up)
chain: TCPSLSPTSPLNNKGILSLPHQASPVSRTPSLPAVDTSYINTSLIQDYRHPFHMTPMPYDLQGLDFFPFLSGDNQHYNTSLLAAAAAAVSDDQDLLHSSRFFPYTSSQMFLDQLSAGGSTSLPTTNGSSSGSNSSLVSSNSLRESHSHTVTNRSSTDTASIFGIIPDIISLD
notes: domain: S/T rich region; Purified recombinant protein from BL21 cells; also called S/T only; S/T-only PIAS1; not shown: 6xHis tag from the pRSETA-6xHis vector
B3: the binding result in data set [4] is reported as “no binding”.
